The record followed here is article doi:10.1101/2025.08.01.667454.

As a reminder, the Kd is the concentration at which binding is half-saturated. A low value points to higher affinity.

This experiment deals with PU.1[60–100]^TMR (human) (UniProt P17947). Nature of the experiment: fluorescence polarisation. (Fluorescence polarisation rises when a labelled molecule tumbles more slowly, as on binding a larger partner.)

Regarding BAF60A^SWIB (domain or fragment), the Kd was > 50 µM.
